From doi:10.1101/2025.03.03.641244 (bioRxiv, 2025)

T1: Sortilin extracellular domain (ECD) (M1-S756) C-terminally fused to 6His (UniProt Q99523 78-756)
T1 sequence: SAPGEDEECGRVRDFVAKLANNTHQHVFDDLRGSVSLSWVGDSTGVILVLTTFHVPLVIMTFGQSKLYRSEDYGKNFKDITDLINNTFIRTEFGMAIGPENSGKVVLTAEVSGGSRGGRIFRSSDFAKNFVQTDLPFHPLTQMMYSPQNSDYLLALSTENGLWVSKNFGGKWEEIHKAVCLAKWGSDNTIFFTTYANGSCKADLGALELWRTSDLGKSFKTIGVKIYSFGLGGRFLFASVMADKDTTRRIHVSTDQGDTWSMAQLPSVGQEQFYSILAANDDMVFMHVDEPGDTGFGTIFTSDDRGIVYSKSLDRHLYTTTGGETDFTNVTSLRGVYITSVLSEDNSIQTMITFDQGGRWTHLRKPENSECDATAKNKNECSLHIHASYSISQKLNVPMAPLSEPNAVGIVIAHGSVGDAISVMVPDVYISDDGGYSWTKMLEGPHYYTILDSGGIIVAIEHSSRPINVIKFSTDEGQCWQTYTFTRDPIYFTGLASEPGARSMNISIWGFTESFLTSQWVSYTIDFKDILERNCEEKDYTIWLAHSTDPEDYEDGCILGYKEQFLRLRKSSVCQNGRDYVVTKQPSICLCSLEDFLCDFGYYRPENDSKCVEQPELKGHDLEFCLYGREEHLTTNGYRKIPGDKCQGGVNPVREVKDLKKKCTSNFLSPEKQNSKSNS


Tests used:
Test in all cases: MST
[1] = biological target: Sortilin extracellular domain (ECD) (M1-S756) C-terminally fused to 6His (UniProt Q99523)
[2] = biological target: Enhanced GFP with C-terminal (GGGGS)3GG linker and RQLL
[3] = biological target: T1, Sortilin extracellular domain (ECD) …

| Molecule | Kd [1] | further results |
| --- | --- | --- |
| TNFa (V76-L233) without RQLL (natural protein) | > 200 µM |  |
| Sortilin extracellular domain (ECD) (M1-S756) C-terminally fused to 6His (from UniProt Q99523 78-756) (domain or fragment) |  | Kd [2]: 0.074 µM |
| TNFa (V76-L233) with C-terminal (GGGGS)3GG linker and RQLL | 0.0865 µM |  |
| progranulin N-terminally tagged with the HiBiT peptide (ligand) TRCPDGQFCPVACCLDPGGASYSCCRPLLDKWPTTLSRHLGGPCQVDAHCSAGHSCIFTVSGTSSCCPFPEAVACGDGHHCCPRGFHCSADGRSCFQRSGNNSVGAIQCPDSQFECPDFSTCCVMVDGSWGCCPMPQASCCEDRVHCCPHGAFCDLVHTRCITPTGTHPLAKKLPAQRTNRAVALSSSVMCPDARSRCPDGSTCCELPSGKYGCCPMPNATCCSDHLHCCPQDTVCDLIQSKCLSKENATTDLLTKLPAHTVGDVKCDMEVSCPDGYTCCRLQSGAWGCCPFTQAVCCEDHIHCCPAGFTCDTQKGTCEQGPHQVPWMEKAPAHLSLPDPQALKRDVPCDNVSSCPSSDTCCQLTSGEWGCCPIPEAVCCSDHQHCCPQGYTCVAEGQCQRGSEIVAGLEKMPARRASLSHPRDIGCDQHTSCPVGQTCCPSLGGSWACCQLPHAVCCEDRQHCCPAGYTCNVKARSCEKEVVSAQPATFLARSPHVGVKDVECGEGHFCHDNQTCCRDNRQGWACCPYRQGVCCADRRHCCPAGFRCAARGTKCLRREAPRWDAPLRDPALRQLL |  | Kd [3]: 0.0035 ± 0.0016 µM |
